Test results from IntAct's records for PubMed 14699056.

B1: Protein EMP47 (Saccharomyces cerevisiae), P43555 (parent)
chain: MMMLITMKSTVLLSVFTVLATWAGLLEAHPLGDTSDASKLSSDYSLPDLINARKVPNNWQTGEQASLEEGRIVLTSKQNSKGSLWLKQGFDLKDSFTMEWTFRSVGYSGQTDGGISFWFVQDSNVPRDKQLYNGPVNYDGLQLLVDNNGPLGPTLRGQLNDGQKPVDKTKIYDQSFASCLMGYQDSSVPSTIRVTYDLEDDNLLKVQVDNKVCFQTRKVRFPSGSYRIGVTAQNGAVNNNAESFEIFKMQFFNGVIEDSLIPNVNAMGQPKLITKYIDQQTGKEKLIEKTAFDADKDKITNYELYKKLDRVEGKILANDINALETKLNDVIKVQQELLSFMTTITKQLSSKPPANNEKGTSTDDAIAEDKENFKDFLSINQKLEKVLVEQEKYREATKRHGQDGPQVDEIARKLMIWLLPLIFIMLVMAYYTFRIRQEIIKTKLL
partner: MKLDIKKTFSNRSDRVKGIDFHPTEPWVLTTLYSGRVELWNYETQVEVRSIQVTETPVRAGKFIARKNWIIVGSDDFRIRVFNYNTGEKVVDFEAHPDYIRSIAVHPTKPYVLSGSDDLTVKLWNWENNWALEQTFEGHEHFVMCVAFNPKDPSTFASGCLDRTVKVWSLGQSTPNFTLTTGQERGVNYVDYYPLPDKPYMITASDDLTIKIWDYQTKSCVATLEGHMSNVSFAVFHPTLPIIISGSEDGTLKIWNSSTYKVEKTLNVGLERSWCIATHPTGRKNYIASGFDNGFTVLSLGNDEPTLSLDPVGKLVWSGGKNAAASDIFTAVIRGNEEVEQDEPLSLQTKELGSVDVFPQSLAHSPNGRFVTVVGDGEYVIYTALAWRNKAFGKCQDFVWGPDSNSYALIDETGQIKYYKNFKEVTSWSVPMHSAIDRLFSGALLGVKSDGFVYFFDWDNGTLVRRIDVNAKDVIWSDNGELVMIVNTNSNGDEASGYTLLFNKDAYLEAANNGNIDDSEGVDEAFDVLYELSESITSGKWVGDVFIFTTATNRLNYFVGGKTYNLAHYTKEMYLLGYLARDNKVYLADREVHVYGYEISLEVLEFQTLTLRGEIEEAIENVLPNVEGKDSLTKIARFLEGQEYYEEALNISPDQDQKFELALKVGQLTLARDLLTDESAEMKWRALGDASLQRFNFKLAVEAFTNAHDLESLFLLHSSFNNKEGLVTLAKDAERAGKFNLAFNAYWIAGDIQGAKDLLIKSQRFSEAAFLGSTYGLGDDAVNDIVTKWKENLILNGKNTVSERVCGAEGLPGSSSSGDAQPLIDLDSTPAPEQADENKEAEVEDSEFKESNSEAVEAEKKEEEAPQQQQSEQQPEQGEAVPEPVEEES
B2: Dolichyl-diphosphooligosaccharide--protein glycosyltransferase subunit WBP1 (Saccharomyces cerevisiae), P33767 (parent)
chain: MRTDWNFFFCILLQAIFVVGTQTSRTLVLYDQSTEPLEEYSVYLKDLEQRNYKLEYLDINSTSTTVDLYDKEQRLFDNIIVFPTKGGKNLARQIPVKQLIKFFENEGNILCMSSPGAVPNTIRLFLNELGIYPSPKGHVIRDYFSPSSEELVVSSNHLLNKYVYNARKSEDFVFGESSAALLENREQIVPILNAPRTSFTESKGKCNSWTSGSQGFLVVGFQNLNNARLVWIGSSDFLKNKNQDSNQEFAKELLKWTFNEKSVIKSVHAVHSHADGTSYDEEPYKIKDKVIYSVGFSEWNGEEWLPHIADDIQFELRQVDPYYRLTLSPSGNDSETQYYTTGEFILPDRHGVFTFLTDYRKIGLSFTTDKDVKAIRHLANDEYPRSWEISNSWVYISAICGVIVAWIFFVVSFVTTSSVGKKLETFKKTN
partner: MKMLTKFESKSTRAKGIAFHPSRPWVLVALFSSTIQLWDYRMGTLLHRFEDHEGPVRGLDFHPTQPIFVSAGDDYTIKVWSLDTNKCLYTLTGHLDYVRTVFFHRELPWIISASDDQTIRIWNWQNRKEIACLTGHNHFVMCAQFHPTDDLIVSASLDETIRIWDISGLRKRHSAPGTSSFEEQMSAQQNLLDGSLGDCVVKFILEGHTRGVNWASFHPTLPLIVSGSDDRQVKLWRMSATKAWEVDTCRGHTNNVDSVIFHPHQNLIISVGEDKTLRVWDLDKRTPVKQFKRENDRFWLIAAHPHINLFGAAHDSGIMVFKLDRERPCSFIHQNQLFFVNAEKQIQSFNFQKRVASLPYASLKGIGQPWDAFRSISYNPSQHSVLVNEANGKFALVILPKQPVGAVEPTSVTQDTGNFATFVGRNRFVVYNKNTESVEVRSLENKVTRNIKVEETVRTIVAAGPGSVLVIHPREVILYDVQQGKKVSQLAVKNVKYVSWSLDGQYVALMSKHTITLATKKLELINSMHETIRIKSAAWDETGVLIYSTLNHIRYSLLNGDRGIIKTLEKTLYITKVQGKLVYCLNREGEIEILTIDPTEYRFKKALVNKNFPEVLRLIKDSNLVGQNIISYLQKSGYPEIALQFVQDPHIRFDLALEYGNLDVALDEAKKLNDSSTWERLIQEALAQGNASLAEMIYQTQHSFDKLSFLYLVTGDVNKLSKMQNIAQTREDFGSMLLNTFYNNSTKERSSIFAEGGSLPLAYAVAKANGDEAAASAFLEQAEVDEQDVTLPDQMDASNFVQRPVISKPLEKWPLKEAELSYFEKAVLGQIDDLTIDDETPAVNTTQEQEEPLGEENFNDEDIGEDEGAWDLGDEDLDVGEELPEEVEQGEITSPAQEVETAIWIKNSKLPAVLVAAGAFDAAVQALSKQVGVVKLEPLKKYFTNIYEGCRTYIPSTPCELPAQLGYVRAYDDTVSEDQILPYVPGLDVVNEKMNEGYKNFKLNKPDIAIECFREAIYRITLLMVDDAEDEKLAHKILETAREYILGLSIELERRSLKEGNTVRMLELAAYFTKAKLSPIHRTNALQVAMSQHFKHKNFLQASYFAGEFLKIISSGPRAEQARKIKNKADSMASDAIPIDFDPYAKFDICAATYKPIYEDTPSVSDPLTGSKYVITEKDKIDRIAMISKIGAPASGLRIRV

Variants of: B1
Details: with copb2_yeast SEC27, P41811

| effect of a mutation on the interaction | Variant |
| --- | --- |
| decreasing interaction | MMMLITMKSTVLLSVFTVLATWAGLLEAHPLGDTSDASKLSSDYSLPDLINARKVPNNWQTGEQASLEEGRIVLTSKQNSKGSLWLKQGFDLKDSFTMEWTFRSVGYSGQTDGGISFWFVQDSNVPRDKQLYNGPVNYDGLQLLVDNNGPLGPTLRGQLNDGQKPVDKTKIYDQSFASCLMGYQDSSVPSTIRVTYDLEDDNLLKVQVDNKVCFQTRKVRFPSGSYRIGVTAQNGAVNNNAESFEIFKMQFFNGVIEDSLIPNVNAMGQPKLITKYIDQQTGKEKLIEKTAFDADKDKITNYELYKKLDRVEGKILANDINALETKLNDVIKVQQELLSFMTTITKQLSSKPPANNEKGTSTDDAIAEDKENFKDFLSINQKLEKVLVEQEKYREATKRHGQDGPQVDEIARKLMIWLLPLIFIMLVMAYYTFRIRQEIISTSLL [K441S;K443S] |

Variants of: B2
Details: with copa_yeast COP1, P53622

| effect of a mutation on the interaction | Variant |
| --- | --- |
| decreasing interaction | MRTDWNFFFCILLQAIFVVGTQTSRTLVLYDQSTEPLEEYSVYLKDLEQRNYKLEYLDINSTSTTVDLYDKEQRLFDNIIVFPTKGGKNLARQIPVKQLIKFFENEGNILCMSSPGAVPNTIRLFLNELGIYPSPKGHVIRDYFSPSSEELVVSSNHLLNKYVYNARKSEDFVFGESSAALLENREQIVPILNAPRTSFTESKGKCNSWTSGSQGFLVVGFQNLNNARLVWIGSSDFLKNKNQDSNQEFAKELLKWTFNEKSVIKSVHAVHSHADGTSYDEEPYKIKDKVIYSVGFSEWNGEEWLPHIADDIQFELRQVDPYYRLTLSPSGNDSETQYYTTGEFILPDRHGVFTFLTDYRKIGLSFTTDKDVKAIRHLANDEYPRSWEISNSWVYISAICGVIVAWIFFVVSFVTTSSVGKKLETFAATN [K427A;K428A] |
